Publication PMC8401665

What was measured:
[1] = target: GluK2-ATD (Cys-light homomeric GluK2 receptor with a cysteine at site 266) (Rattus norvegicus) (UniProt P42260)
[2] = target: GluK2-ABD (Cys-light homomeric GluK2 receptor with a cysteine at site 479) (Rattus norvegicus) (UniProt P42260)

smFRET efficiency across the dimer-dimer interface at the ATD (site 266) with 40 uM Con-A and 1 mM glutamate; primary population, against 0.83 reported earlier without Con-A (FRET efficiency) [1]: 0.95
smFRET efficiency between subunits at the ABD dimer interface (site 479) with 40 uM Con-A and 1 mM glutamate, Na+; major peak, shift of the population to higher FRET states against no Con-A (FRET efficiency) [2]: 0.94
Substance: Concanavalin A (natural protein)
